“Also recorded” adds a separate entry of the source.
Experiments:
[1] = Specific activity of recombinant Δ4, 5 glycuronidase purification fractions; assay type: biochemical; settings: 800 ng protein, 120 μM ΔUHNAc, 100 μl
Description: (§1) Assay for enzyme activity and determination of kinetic parameters. Standard reactions were carried out at 30° C. and included 100 mM sodium phosphate buffer, pH 6.4, 50 mM NaCl, 500 μM disaccharide substrate and 200 nM enzyme in a 100 μl reaction volume. Hydrolysis of heparin disaccharides was determined spectrophotometrically by measuring the loss of the Δ4, 5 chromophore measured at 232 nm Substrate hydrolysis was calculated using the following molar extinction coefficients empirically determined for each disaccharide substrate: ΔUHNAc, ε232=4,524; ΔUHNAc6S, ε232=4,300; ΔUHNS, ε232=6,600; ΔUHNS,6S, ε232=6,075; ΔUHNH26S, ε232=4,826; ΔU2SHNS, ε232=4,433. Initial rates (Vo) were extrapolated from linear activities representing <10% substrate turnover and fit to pseudo first-order kinetics. For kinetic experiments, disaccharide concentration for each respective substrate was varied from 48 to 400 μM concentrations. Km and kcat values were extrapolated from Vo vs. [S] curves fit to the Michaelis Menten equation by a non-linear, least squares regression.
(§2) A two-step purification comprised of Ni^+2 chelation chromatography followed by thrombin cleavage to remove the 6× His purification tag, typically yielded over 200 mg of greater than 90% pure enzyme as assessed by SDS-PAGE followed by Coomassie Brilliant Blue staining. […] T. and Linker, A., 1972, Biochemistry 11, 568-72]. While removal of the 6× His tag from the N-terminus of the enzyme was unnecessary for optimal hydrolytic activity, the presence of the histidine tag did appear to instigate protein precipitation over an extended time especially at higher enzyme concentrations. This tag was, therefore removed for all subsequent biochemical experiments. In this manner, the recombinant protein was stable at 4° C. for at least two weeks during which time it remained in solution at protein concentrations exceeding 10 mg/mL under the buffer conditions described.

[2] = Biochemical conditions for optimal enzyme activity (NaCl, pH, temperature, divalent metals)
Description: For experiments measuring the relative effect of ionic strength on glycuronidase activity, the NaCl concentration was varied from 0.05 to 1 M in 0.1 M sodium phosphate buffer (pH 6.4), 200 μM ΔUHNS,6S and […] under otherwise standard reaction conditions. The effect of pH on catalytic activity was kinetically determined at varying AUHNS,6S concentrations in 0.1 M sodium phosphate buffer at pH 5.2, 5.6, 6.0, 6.4, 6.8, 7.2 and 7.8. Data were fit to Michaelis-Menten kinetics as described above and the relative kcat/Km ratios plotted as a function of pH.
To determine the optimal reaction conditions for Δ4, 5 glycuronidase activity, we analyzed initial reaction rates as a function of buffer, pH, temperature, and ionic strength (FIG. 6). For these experiments, we used the disulfated heparin disaccharide substrate ΔUHNS,6S. Based on what is known about the degradation of heparin/heparan sulfate-like glycosaminoglycans by flavobacteria as well as initial biochemical characterization of this and related enzymes [Warnick, C. T. and Linker, A., 1972, Biochemistry 11, 568-72], we hypothesized that a heparin disaccharide would be an optimal substrate for the Δ4, 5 glycuronidase. Enzyme activity was routinely monitored by a loss of absorbance at 232 nm, corresponding indirectly to the hydrolysis of the uronic acid from the non-reducing end.

[3] = Kinetic comparison of native and recombinant enzymes; assay type: biochemical; settings: identical reaction conditions, 200 nM enzyme, 500 μM ΔUHNAc
Description: FIG. 7 depicts a kinetic comparison of native and recombinant enzymes. Relative specific activities were measured for both enzyme fractions under identical reaction conditions that included 200 nM enzyme and 500 μM of the heparin disaccharide substrate (ΔUHNAc). Flavobacterial Δ4, 5 (closed circles); recombinant Δ4, 5 (open circles).
Having established the reaction conditions for optimal Δ4, 5 glycuronidase activity, we next compared the specific activity of the recombinant enzyme (Δ4,5^Δ20) relative to the native enzyme purified directly from F. heparinum (FIG. 7). The activities of both enzyme fractions were measured in parallel under identical reaction conditions.

[4] = Storage stability and solubility of the recombinant protein after 6× His tag removal; assay type: physicochemical; settings: 6× His tag removed, phosphate buffer
Description: as §2

[5] = substrate: CC(=O)N[C@H]1C(O)O[C@H](CO)[C@@H](O[C@@H]2OC(C(=O)O)=C[C@H](O)[C@H]2O)[C@@H]1O; assay: Kinetic parameters of Δ4, 5 glycuronidase for disaccharide substrates (loss of absorbance at 232 nm, Michaelis-Menten fit); assay type: biochemical, F. heparinum; settings: other: 200 nM enzyme, 30° C., pH 6.4, substrate 48 to 400 μM
Description: as §1
(§3) The specificity of the Δ4, 5 glycuronidase acting on various glycosaminoglycan disaccharide substrates was investigated. The various substrates examined included both heparin and chondroitin disaccharides as well as an hyaluronadate. In particular, we considered the possibility of any structural discriminations pertaining to glycosidic linkage position (1→4 vs. 1→3) and relative sulfation state within the disaccharide. For each substrate, kinetic parameters were determined based on substrate saturation profiles that fit Michaelis-Menten assumptions (FIG. 8).

[6] = substrate: CC(=O)N[C@H]1C(O)O[C@H](COS(=O)(=O)O)[C@@H](O[C@@H]2OC(C(=O)O)=C[C@H](O)[C@H]2O)[C@@H]1O; assay: as above; assay type: biochemical, F. heparinum; settings: other: 200 nM enzyme, 30° C., pH 6.4, substrate 48 to 400 μM
Description: as §1, §3

[7] = substrate: N[C@H]1C(O)O[C@H](COS(=O)(=O)O)[C@@H](O[C@@H]2OC(C(=O)O)=C[C@H](O)[C@H]2O)[C@@H]1O; assay: as above; assay type: biochemical, F. heparinum; settings: other: 200 nM enzyme, 30° C., pH 6.4, substrate 48 to 400 μM
Description: as §1, §3

[8] = substrate: O=C(O)C1=C[C@H](O)[C@@H](O)[C@H](O[C@H]2[C@H](O)[C@@H](NS(=O)(=O)O)C(O)O[C@@H]2CO)O1; assay: as above; assay type: biochemical, F. heparinum; settings: other: 200 nM enzyme, 30° C., pH 6.4, substrate 48 to 400 μM
Description: as §1, §3

[9] = substrate: O=C(O)C1=C[C@H](O)[C@@H](O)[C@H](O[C@H]2[C@H](O)[C@@H](NS(=O)(=O)O)C(O)O[C@@H]2COS(=O)(=O)O)O1; assay: as above; assay type: biochemical, F. heparinum; settings: other: 200 nM enzyme, 30° C., pH 6.4, substrate 48 to 400 μM
Description: as §1, §3

B1: recombinant Δ4, 5 glycuronidase (Δ4,5^Δ20) (Pedobacter heparinus DSM 2366) (protein)
chain: MTVTKGNGDDWLKKSTKTAVIQLTRAAQTYTPGMNPRSVNPDGTVRLAPPRDWTTGFFPGTLWYGYELSGDKNLAAEAKRFTLALDTIQYVKDTHDLGFMLYCSYGNAYRVTGDKIYLKPLENGAANLYARFNKKVGAIRSWDFGHWQFPVIIDNLMNLEYLYWAGKEFNKPEWFDAAKTHAVTTMKNHFRKDYSSYHVISYDTLSGKVLQRETHQGLTNESAWARGQAWGLYGYTMSYKDTKDKKFIEHAEHIAAFIMNHPAMPADKIPLWDFDVHNRDRSPRDASAAAVIASALLDLSTQVKDGQKYFKFAEDILKTLSSDEYLAKPGENQFFILKHSVGALLYNSEIDTPLNYADYYYLEALKRYAEIKKIDLKTINQS
[1]; Crude lysate
  Sp. Activity: 4.7 μmoles DiS/min./mg protein
[1]; Ni^+2 chromatography
  Sp. Activity: 12.9 μmoles DiS/min./mg protein
[1]; Thrombin cleavage
  Sp. Activity: 13.6 μmoles DiS/min./mg protein
[2]
  requirement for divalent metal ions: no evidence that metals are either required for catalysis or activate the enzyme
[2]; 0.1 M sodium phosphate pH 5.2-7.8, ΔUHNS,6S, relative kcat/Km
  pH optimum: 6.4
[2]; especially at 42° C.
  initial reaction rates at highest temperatures: significantly reduced
[2]; preincubation at 30, 37, and 42° C., then measured at standard 30° C.
  relative enzyme activities after preincubation (enzyme stability): no significant change
[2]; relative to 100% activity at 100 mM NaCl
  inhibition at 250 mM NaCl: approximately 60%
[3]
  specific activity relative to the native Flavobacterial enzyme: approximately three-fold; also recorded: at least two-fold; also recorded: roughly three-fold
[4]
  stable at 4° C.: at least two weeks
[5]
  Km: 283 ± 31 µM
  kcat: 15.3 ± 0.9 s⁻¹
  kcat/Km: 54000 M⁻¹ s⁻¹
[6]
  Km: 107 ± 15 µM
  kcat: 11.7 ± 0.6 s⁻¹
  kcat/Km: 110000 M⁻¹ s⁻¹
[7]
  Km: 235 ± 40 µM
  kcat: 2.4 ± 0.2 s⁻¹
  kcat/Km: 10000 M⁻¹ s⁻¹
[8]
  Km: 251 ± 40 µM
  kcat: 4.9 ± 0.4 s⁻¹
  kcat/Km: 20000 M⁻¹ s⁻¹
[9]
  Km: 334 ± 57 µM
  kcat: 8.8 ± 0.9 s⁻¹
  kcat/Km: 26000 M⁻¹ s⁻¹

Reference: patent US7951560B2, “Delta 4,5 glycuronidase compositions and methods related thereto” (Massachusetts Institute of Technology, priority 2002, dated 2011)
